# In patent publication US20230407327A1, “INDUCIBLE PROMOTER FOR VIRAL VECTOR PRODUCTION” (ASKLEPIOS BIOPHARMACEUTICAL, INC., priority 2020, published 2023):
# Columns and labels:
# HEK293-F cells = test: Luciferase expression from hypoxia-inducible promoters in transiently transfected HEK293-F cells; type: cell-based, human; conditions: cells placed in hypoxia at 0 hours; FIG. 3
# Description: 40 ml of cells are grown in a 250 ml vented Erlenmeyer flask (Sigma-Aldrich CLS431144) at 37° C., 20% O2, 8% CO2 with agitation at 100 rpm. Cells are seeded as described in the manufacturer's instructions (300,000 cells/ml). HEK293-F are obtained from Thermofisher, R79007.
# One day before transfection, the cells are counted using a haemocytometer and split to 500,000 cells/ml.
# On the day of transfection, the cells are seeded to 1,000,000 cells/ml in 500 µl of appropriate medium (Freestyle 293 expression medium, 12338002) in a 24 well plate. […] of DNA per well is then added to 10 μl of OptiMem medium (Thermofisher; 11058021) and incubated for 5 minutes at room temperature.
# Concurrently, 0.625 μl of Max reagent (Thermofisher, 16447100) is made up to […] by addition of OptiMem and incubated for 5 minutes at room temperature. After this incubation, both mixes are added to the same tube and incubated at room temperature for 25-30 minutes. The DNA/Max reagent mix (20 μl/well) is then added directly to the cells and the cells incubated at 37° C., 8% CO2 with agitation at 100 rpm. […]
# After transfection the cells are incubated for 24 hrs in normoxia conditions (20% oxygen) before being switched to a gas mix of 5% oxygen, 10% carbon dioxide and 85% nitrogen (hypoxia). […] Induction of the promoters is assessed by using luciferase activity after 3, 5 and 24 hrs in hypoxia.
# (§1) Luciferase activity is measured using LARII (Dual Luciferase Reporter 1000 assay system, Promega, E1980).
# Media is removed from the cells at the respective time point (0, 3, 5, 24 hrs after induction). […] 10 μl of supernatant is pipetted into white 96-well plate and luminescence measured by addition of 50 μl of LARII substrate.
# β-galactosidase activity is measured as per manufacturer's instructions (Mammalian PGalactosidase Assay Kit, 75707/75710, Thermo Scientific) using 25 µl of lysate. […] The mixture is incubated at 37° C. for 30 min and absorbance measured at 405 nm.
# (§2) Luciferase readouts are normalised to β-galactosidase to produce normalised relative luminometer units (RLUs).
# HEK293-T cells = test: Luciferase expression from hypoxia-inducible promoters in transiently transfected HEK293-T cells; type: cell-based, human; conditions: for luciferase activity in normoxia: normoxic conditions, FIG. 4
# Description: HEK293-T are seeded at a density of 20%. Once they reached a confluence between 60 and 80%, the media is changed with DMEM (#21885-025—Thermo Scientific) supplemented with 10% FBS (Gibco, 26140). After 3 hours, the cells are transfected by a transfection mix. The transfection mix is prepared by adding DNA (2 μg per 6 well plate) and PEI 25 kDA (#23966-1—Polyscience) in a ratio of 1:3 in sterile DPBS (#14190169—ThermoFisher Scientific). After mixing, the transfection mix is incubated at room temperature for 30 minutes and then added directly to the cells. After 16 to 18 h post transfection, the media is changed to DMEM+2% FBS. The transfected DNA is one of the vectors where the promoter construct (Synp-RTV-016, Synp-HYBT and Synp-HV3C) or a control promoter (CMV-IE) are used to drive luciferase expression and P-galactosidase containing pcDNA6 plasmid. The β-galactosidase containing plasmid is used as internal control for transfection efficiency (Thermofisher, V22020).
# After transfection the cells are incubated for 24 hrs in normoxic conditions (20% oxygen). Induction of the promoters is assessed by using luciferase activity after 24 hrs in normoxia or hypoxia (5% oxygen, 10% carbon dioxide and 85% nitrogen). Hypoxia is achieved by gas displacement in a sealed hypoxia chamber.
# as §1
# Media is removed from the cells at the respective time point (0, 3, 5, 24 hrs after induction). The cells are washed once in 300 μl of DPBS. Cells are lysed by adding 100 μl of passive lysis buffer to the cells and incubation with rocking for 15 minutes. The cell debris is pelleted by centrifugation of the plate at max speed in a benchtop centrifuge for 1 min. 10 μl of supernatant is pipetted into white 96-well plate and luminescence measured by addition of 50 μl of LARII substrate.
# β-galactosidase activity is measured as per manufacturer's instructions (Mammalian PGalactosidase Assay Kit, 75707/75710, Thermo Scientific) using 25 µl of lysate. 25 μl of lysate is transferred into a microplate well and mixed with 25 μl of β-galactosidase Assay Reagent, equilibrated to room temperature. The mixture is incubated at 37° C. for 30 min and absorbance measured at 405 nm.
# as §2
# Huh7 (liver) = test: Luciferase expression from forskolin-inducible promoters in Huh7 cells; type: cell-based, human; conditions: for luciferase activity after induction, promoter expressed from an AAV vector: 20 μM forskolin or 7.2 μM NKH477; for luciferase activity after induction, promoter expressed from an AAV vector / luciferase activity without induction, promoter expressed from an AAV vector: FIG. 8; for luciferase activity after induction: 20 μM forskolin; for luciferase activity after induction / luciferase activity without induction: FIG. 6; for luciferase activity without induction, promoter expressed from an AAV vector: AAV vector containing ITRs
# Description: Luciferase activity was measured without induction and after induction with 20 μM forskolin or 7.2 μM NKH477.
# C2C12 (muscle) cells = test: Luciferase expression from forskolin-inducible promoter in C2C12 cells; type: cell-based, mouse; conditions: FIG. 7
# Excerpt: CMV-IE expression was not analyzed under induced conditions, and thus no result is shown in the graph.
Molecule,luciferase activity over time in hypoxia (HEK293-F cells),luciferase expression / inducibility after 24 hours in hypoxia versus normoxia (HEK293-T cells),luciferase activity in normoxia (HEK293-T cells),"luciferase activity after induction, promoter expressed from an AAV vector (Huh7 (liver))",luciferase activity after induction (Huh7 (liver)),"luciferase activity without induction, promoter expressed from an AAV vector (Huh7 (liver))",luciferase activity without induction (Huh7 (liver)),luciferase activity after induction (C2C12 (muscle) cells; 20 μM forskolin),luciferase activity without induction (C2C12 (muscle) cells)
"Synp-HYBT: synthetic hypoxia-inducible promoter, SEQ ID NO: 2; 4 HRE3 and a YB-TATA minimal promoter (nucleic acid) DNA: ACCTTGAGTACGTGCGTCTCTGCACGTATGGCGATTAAGACCTTGAGTACGTGCGTCTCTGCACGTATGGCGATTAAGACCTTGAGTACGTGCGTCTCTGCACGTATGGCGATTAAGACCTTGAGTACGTGCGTCTCTGCACGTATGGCGATTAATCCATATGCTCTAGAGGGTATATAATGGGGGCCA",increase in luciferase activity with time,induced to a varying level,almost no luciferase activity,,,,,,
"Synp-RTV-016: synthetic hypoxia-inducible promoter, SEQ ID NO: 1; 6 HRE2 and CMV minimal promoter (nucleic acid) DNA: CTGCACGTAGATGATGCGTAGCTAGTAGTCTGCACGTAGATGATGCGTAGCTAGTAGTCTGCACGTAGATGATGCGTAGCTAGTAGTCTGCACGTAGATGATGCGTAGCTAGTAGTCTGCACGTAGATGATGCGTAGCTAGTAGTCTGCACGTAGTAGTCGTATGCTGATGCGCAGTTAGCGTAGCTGAGGTACCGTCGACGATATCGGATCCAGGTCTATATAAGCAGAGCTCGTTTAGTGAACCGTCAGATCGCCTAGATACGCCATCCACGCTGTTTTGACCTCCATAGAAGATCGCCACC",increase in luciferase activity with time,lowest,almost no luciferase activity,,,,,,
"Synp-HV3C: synthetic hypoxia-inducible promoter, SEQ ID NO: 3; 4 HRE3 and CMV minimal promoter (nucleic acid) DNA: ACCTTGAGTACGTGCGTCTCTGCACGTATGGCGATTAAGACCTTGAGTACGTGCGTCTCTGCACGTATGGCGATTAAGACCTTGAGTACGTGCGTCTCTGCACGTATGGCGATTAAGACCTTGAGTACGTGCGTCTCTGCACGTATGGCGATTAATCCATATGCAGGTCTATATAAGCAGAGCTCGTTTAGTGAACCGTCAGATCGCCTAGATACGCCATCCACGCTGTTTTGACCTCCATAGAAGATCGCCACC",increase in luciferase activity with time,highest,almost no luciferase activity,,,,,,
"Synp-RTV-017: synthetic forskolin-inducible promoter, SEQ ID NO: 4; 8× AP1 TFBS and a CMV-MP (nucleic acid) DNA: TGAGTCAGATGATGCGTAGCTAGTAGTTGAGTCAGATGATGCGTAGCTAGTAGTTGAGTCAGATGATGCGTAGCTAGTAGTTGAGTCAGATGATGCGTAGCTAGTAGTTGAGTCAGATGATGCGTAGCTAGTAGTTGAGTCAGATGATGCGTAGCTAGTAGTTGAGTCAGATGATGCGTAGCTAGTAGTTGAGTCAGTAGTCGTATGCTGATGCGCAGTTAGCGTAGCTGAGGTACCGTCGACGATATCGGATCCAGGTCTATATAAGCAGAGCTCGTTTAGTGAACCGTCAGATCGCCTAGATACGCCATCCACGCTGTTTTGACCTCCATAGAAGATCGCCACC",,,,high activity,high activity,low background activity,low background activity,,
"Synp-RTV-019: synthetic forskolin-inducible promoter, SEQ ID NO: 5; 3×ATF6, 4× AP1 and 3× HIF TFBS and a CMV-MP (nucleic acid) DNA: TGACGTGCTGATGATGCGTAGCTAGTAGTTGACGTGCTGATGATGCGTAGCTAGTAGTTGACGTGCTGATGATGCGTAGCTAGTAGTTGAGTCAGATGATGCGTAGCTAGTAGTTGAGTCAGATGATGCGTAGCTAGTAGTTGAGTCAGATGATGCGTAGCTAGTAGTTGAGTCAGATGATGCGTAGCTAGTAGTCTGCACGTAGATGATGCGTAGCTAGTAGTCTGCACGTAGATGATGCGTAGCTAGTAGTCTGCACGTAGATGATGCGTAGCTAGTAGTGCAGTTAGCGTAGCTGAGGTACCGTCGACGATATCGGATCCAGGTCTATATAAGCAGAGCTCGTTTAGTGAACCGTCAGATCGCCTAGATACGCCATCCACGCTGTTTTGACCTCCATAGAAGATCGCCACC",,,,high activity,high activity,low background activity,low background activity,high activity,low background activity
"Synp-FORCYB1: synthetic forskolin-inducible promoter, SEQ ID NO: 6; 5× cAMPRE and 4× AP1 TFBS and YB-TATA-MP (nucleic acid) DNA: TGACGTCACGATTACCATTGACGTCACGATTACCATTGACGTCACGATTACCATTGACGTCACGATTACCATTGACGTCAGCGATTAAGATGACTCAGCGATTAAGATGACTCAGCGATTAAGATGACTCAGCGATTAAGATGACTCAGCGATTAATCCATATGCTCTAGAGGGTATATAATGGGGGCCACTAGTCTACTACCAGAAAGCTTGGTACCGAGCTCGGATCCAGCCACC",,,,high activity,,low background activity,,,
